Key:
[1] = test system: human IgE (ragweed allergic patient sera); assay: SDS-PAGE Western blot (and ELISA) of ragweed allergic patient IgE binding to pollen, affinity purified and recombinant Amb a I / Amb a II; set-up: key to IgE binding, summarized Western blot data: −: no signal over background; +−: barely discernable over background; +: clearly positive; ++: strongly positive; +++: highly positive
Method: As represented in FIG. 1A, a selected monoclonal antibody (designated 4B5/B7) which recognizes an Amb a I preparation unsubjected to denaturing conditions was used to affinity purify from pollen extract a single protein, which is referred to as affinity purified Amb a I. This was carried out, using known techniques, by producing the desired monoclonal antibody, isolating it in large quantities from ascites and immobilizing it on Sepharose (Pharmacia). Aqueous pollen extract was passed over the monoclonal antibody-containing column and a protein species was eluted.
(§1) Furthermore, full-length and truncated cDNAs encoding several members of the Amb a I multigene family, as well as Amb a II, were cloned in-frame into the expression vector pTrc99 (Amann et al. Gene, 69:301-315, (1988)) and transformed into the JM109 host. Expression of recombinant Amb a I and Amb a II protein was induced by 1 mM isopropyl-β-D-thiogalactopyranoside, cells were harvested, lysozyme treated, sonicated and insoluble inclusion bodies recovered by a low speed centrifugation. Recombinant Amb a I and Amb a II protein present in the recovered pellet was solubilized in buffer containing 8M urea, 50 mM Tris HC1 pH8.0, 50 mM NaCl, 1 mM EDTA, 1 mM dithiothreitol, 1 mM phenylmethylsulfonyl fluoride. After solubilization, the crude urea lysate was dialyzed at 4° C. against PBS. […] This antigenic cross-reactivity is consistent with the observed sequence homology of the cDNAs (see FIG. 16).
Comparison of human IgE binding to recombinant Amb a I and Amb a II proteins with anti-peptide and monoclonal anti-Amb a I antibodies have provided data consistent with the conclusion that the N-terminal portion (historically referred to as the β-region) of Amb a IA includes the major IgE eptiope(s).
Affinity purified Amb a I was electrophoresed, Western transferred (Towbin et al., Proc. Natl. Acad. Sci. USA, 76:4350 (1979)) and probed with a variety of antibodies, including IgE from an allergic patient (FIG. 17). In pollen extract Amb a I is not only present as an intact 38-KD species, but also characterized by its component 26KD alpha chains and 12-KD beta chains which are formed by enzymatic cleavage. The intact 38-KD species and the alpha chain are clearly detected using rabbit anti-Amb a I, polyclonal affinity purified anti-RAE 16 and monoclonal anti-Amb a I JBIE3-4 (FIG. 17); RAE 16 peptide has the sequence RTDKDLLENGAIC derived from amino-acids […] of Amb a IB, FIG. 16). Affinity purified Amb a I (partial sequence presented in Table 1) as well as chromatographically purified Amb a II (partial sequence presented in Table 2) are bound on Western blots by these antibodies as well as by patient IgE (FIG. 17). The goat anti-Amb a I polyclonal antibody also binds multiple Amb a I and Amb a II species on a two dimensional Western blot of pollen extract (FIG. 18). The Western blot was performed as outlined below. […]

[2] = test system: goat anti-Amb a I antibody; assay: Western blot of E. coli-expressed recombinant Amb a I / Amb a II with goat anti-Amb a I antibody (FIG. 19); type: binding
Method: as §1
Isoelectric focusing was done on a Hoeffer gel apparatus with 15 μg of crude soluble pollen protein. The gel consisted of 7.5% acrylamide with 3.5% Pharmalytes pH 4.5-5.3 (Pharmacia) and 3.5% Ampholines pH 3.5-10 (LKB), run at 13W for 3.5 hours until a constant voltage was reached. The gel section was placed on a slab of 10% acrylamide SDS-PAGE and electrophoresed for 3.5 hours at 40 mA according to the protocol cited. The proteins were transferred overnight in phosphate buffer to 0.1 micron nitrocellulose (Schleicher and Schuell) at 0.2A. The blot was rinsed in blot solution (25 mM Tris-CHl pH 7.5, 0.171 M NaCl, 0.05% Tween-20; Sigma). The first antibody incubation was overnight at room temperature with a […] of goat anti-Amb a I IgC (obtained from Dr. David Marsh) in blot solution. The excess first antibody was removed with three 15 minute rinses with blot solution. The second antibody was a 1:2,500 dilution of biotinylated swine anti-goat IgG (Boehringer-Manneheim) in blot solution for two hours. The blot was then rinsed with blot solution three times for 15 minutes and incubated for 1 hr in blot solution with 2 μCi I^125 streptavidin (Amersham). The blots were rinsed with blot solution until the waste wash was down to background. The blot was then exposed to film at —80° C. overnight. In the case of one-dimensional SDS-PAGE Western blots (FIGS. 17, 19 and 20) the isoelectric focusing step was omitted. When human sera was used to probe the Western blots (FIGS. 17 and 20), 10% human plasma in 1% milk in blot solution was incubated overnight with the blot prior to using as second antibody biotinylated goat anti-human IgE.

[3] = test system: rabbit antisera directed against an Amb a II sequence (amino acid 326-338; RAE 50. K); assay: Western blot of recombinant proteins with monospecific anti-peptide antisera against RAE 50. K; type: binding; settings: Western blots, data not shown
Source text: Proteins or peptides encoded by the cDNA of the present invention can be used, for example, as “purified” allergens. Such purified allergens are useful in the standardization of allergen extracts which are key reagents for the diagnosis and treatment of ragweed allergy. Furthermore, by using peptides based on the sequences listed in FIGS. 2 through 16, anti-peptide antisera or monoclonal antibodies can be made using standard methods. Such reagents can be specifically directed against individual isoforms of Amb a I or Amb a II (i.e., directed against divergent regions/epitopes of the molecule) or can be specific for all forms Amb a I or Amb a II (i.e, directed against common sequences/epitopes). These sera or monoclonal antibodies, directed against Amb a I or Amb a II, can be used to standardize allergen extracts. One such monospecific anti-peptide antisera has already been successfully produced.

[4] = test system: rabbit anti-Amb a I polyclonal antibody; assay: Western blot with rabbit anti-Amb a I polyclonal antibody (FIG. 17); type: binding
Source text: As is also represented in FIG. 1A, rabbit polyclonal antibodies were produced using the King Antigen E preparation. […] These antibodies were also shown, using a similar technique, to bind to the affinity purified Amb a I described previously (FIG. 17).
It is clear from the antibody reactivity that the 4B5/B7 affinity purified Amb a I has a recognition pattern similar to that of the Amb a I of pollen and skin test reagent with both rabbit polyclonal anti-Amb a I and JB1E3-4 anti-Amb a I monoclonal antibody (FIG. 17).
Affinity purified Amb a I was electrophoresed, Western transferred (Towbin et al., Proc. Natl. Acad. Sci. USA, 76:4350 (1979)) and probed with a variety of antibodies, including IgE from an allergic patient (FIG. 17). In pollen extract Amb a I is not only present as an intact 38-KD species, but also characterized by its component 26KD alpha chains and 12-KD beta chains which are formed by enzymatic cleavage. The intact 38-KD species and the alpha chain are clearly detected using rabbit anti-Amb a I, polyclonal affinity purified anti-RAE 16 and monoclonal anti-Amb a I JBIE3-4 (FIG. 17); RAE 16 peptide has the sequence RTDKDLLENGAIC derived from amino-acids 343-353 of Amb a IB, FIG. 16). […]

B1: Amb a II: E. coli expressed recombinant Amb a II (Antigen K) (protein)
chain: LYFTLALVTLVQAGRLGEEVDILPSPNDTRRSLQGCEAHNIIDKCWRCKPDWAENRQALGDCAQGFGKATHGGKWGDIYMVTSDQDDDVVNPKEGTLRFGATQDRPLWIIFQRDMIIYLQQEMVVTSDTTIDGRGAKVELVYGGITLMNVKNVIIHNIDIHDVRVLPGGRIKSNGGPAIPRHQSDGDAIHVTGSSDIWIDHCTLSKSFDGLVDVNWGSTGVTISNCKFTHHEKAVLLGASDTHFQDLKMHVTLAYNIFTNTVHERMPRCRFGFFQIVNNFYDRWDKYAIGGSSNPTILSQGNKFVAPDFIYKKNVCLRTGAQEPEWMTWNWRTQNDVLENGAIFVASGSDPVLTAEQNAGMMQAEPGDMVPQLTMNAGVLTCSPGAPC
IgE binding, summarized Western blot data ([1]; patient 151): + | IgE binding, summarized Western blot data ([1]; patient 222): + | IgE binding, summarized Western blot data ([1]; patient 291): +− | IgE binding, summarized Western blot data ([1]; patient 295): − | IgE binding, summarized Western blot data ([1]; patient 296): − | Binding by goat anti-Amb a I antibody (in words) [2]: binds specifically | Binding by rabbit anti-RAE 50. K antisera (in words) [3]: binds specifically

B2: chromatographically purified Amb a II: chromatographically purified Amb a II (Antigen K) from ragweed pollen (protein)
chain: GEEVDILPSPNDTRRSLQGCEAHNIIDKCWRCKPDWAENRQALGNCAQGFGKATHGGKWGDIYMVTSDQDDDVVNPKEGTLRFGATQDRPLWIIFQRDMIIYLQQEMVVTSDKTIDGRGAKVELVYGGITLMNVKNVIIHNIDIHDVRVLPGGRIKSNGGPAIPRHQSDGDAIHVTGSSDIWIDHCTLSKSFDGLVDVNWGSTGVTISNCKFTHHEKAVLLGASDTHFQDLKMHVTLAYNIFTNTVHERMPRCRFGFFQIVNNFYDRWDKYAIGGSSNPTILSQGNKFVAPDFIYKKNVCLRTGAQEPEWMTWNWRTQNDVLENGAIFVASGSDPVLTAEQNAGMMQAEPGDMVPQLTMNAGVLTCSPGAPC
Human IgE binding (in words) ([1]; Western blot (FIG. 17) and/or ELISA, ragweed allergic patient IgE): bound | Binding by rabbit anti-Amb a I polyclonal antibodies (in words) [4]: cross-reactive B-cell epitopes
